Tests used:
wt vWF multimer = wt vWF multimer (UniProt P04275); test: FCS; conditions: MST: PBS (162 mM ionic strength), optionally +150 mM NaCl, EMSA: 0.5x TA (20 mM ionic strength), +10 or +40 mM NaCl, FCS after shear at 2000-4000 s-1, pH and …
vWF A1 domain = vWF A1 domain (UniProt P04275); test: MST; conditions: MST: PBS (162 mM ionic strength), optionally +150 mM NaCl; EMSA: 0.5x TA (20 mM ionic strength), +10 or +40 mM NaCl; FCS after shear at 2000-4000 s-1; pH and …
[1] = biological target: vWF A1 domain R1392A/R1395A/R1399A (UniProt P04275); test: MST; conditions: MST: PBS (162 mM ionic strength), optionally +150 mM NaCl; EMSA: 0.5x TA (20 mM ionic strength), +10 or +40 mM NaCl; FCS after shear at 2000-4000 s-1; pH and …
[2] = biological target: eGFP full-length vWF dimer (UniProt P04275); test: EMSA; conditions: fixed dimer 0.47 mg/ml, DNA titrated; MST: PBS (162 mM ionic strength), optionally +150 mM NaCl; EMSA: 0.5x TA (20 mM ionic strength), +10 or +40 mM NaCl; FCS after shear at 2000-4000 s-1; pH and …

| Sequence | binding signal (wt vWF multimer; shear 4000 s-1) [% bound] | binding signal (wt vWF multimer; shear, 2000 s-1?) [% bound] | Kd (vWF A1 domain) [µM] | Kd [1] [µM] | Kd [2] [µM] |
| --- | --- | --- | --- | --- | --- |
| CATAAATCTTTGAATACCAAGTGTTAGAACCATCAACCATATCAACTTCCTTTATACATCTA / CTACATCACTTTCTTCATTATAAAATAAAAGGAAGTTGATATGGTTGATG [23 bp ds DNA] | 23 | 21 | 13 | 30 | – |
| GGCGTGCAGTGCCTTCGGCCGTGCGGTGCCTCCGTCACGCCTAAAATAAAA [ARC1172 ss DNA] | – | – | 10 | 130 | 0.001 |

— PMC7367192
